Target: Vibrio campbellii chitoporin VhChiP, wild type (Vibrio campbellii (formerly Vibrio harveyi) BAA-1116)
Assay: SEC

For “Vibrio campbellii chitoporin VhChiP, wild type (natural protein)”, the stoichiometry N was 3.
